In the supplement of paper PMC10567573:

B1: DCAF4 (parent)
chain: TTKCVRQYEGHVNEYAYLPLHVHE

Variants of: B1
Assay: protein stability index of a GFP-peptide fusion (GPS, HEK-293T) (PSI 1-6); higher = more stable
Settings: c terminus: a fixed tail appended
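Further: lentivirally expressed fusions sorted by FACS into six bins by GFP to DsRed ratio, PSI derived from sequencing read proportions per bin multiplied by bin number.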

Protein stability index of substitutions, site by site:
N13: R 2.31 | F 2.02 | M 1.88 | Q 2.32 | I 1.66 | G 3.04 | P 3.12 | C 2.35 | V 2.23 | H 2.5 | E 3.55 | W 1.87 | D 2.35 | A 2.64 | Y 2.09 | T 2.64 | S 2.78 | K 2.48 | L 2.85
Y17: I 2.86 | L 3.79 | D 4.01 | S 3.24 | G 3.37 | Q 3.27 | C 3.51 | P 3.82 | T 3.65 | R 3.06 | V 2.81 | M 3.06 | K 2.96 | W 2.69 | F 2.55 | A 4.37 | H 2.94 | E 4.23 | N 3.08
C4: N 3.48 | P 3.1 | K 2.83 | I 3.13 | T 3.42 | Q 2.94 | S 3.25 | G 2.67 | W 2.29 | F 2.25 | E 3.59 | Y 2.48 | L 2.86 | R 2.69 | D 3.76 | M 3.45 | H 3.19 | A 3.14 | V 3.08
L18: D 3.8 | R 2.89 | E 3.58 | K 2.76 | G 3.09 | W 2.28 | Q 3.16 | I 2.26 | A 2.92 | H 3.09 | T 2.79 | C 2.74 | P 2.75 | N 3.15 | Y 2.38 | M 2.82 | F 2.51 | V 2.48 | S 2.98
P19: C 1.84 | A 1.89 | D 3.02
G10: K 3.44 | W 1.65 | H 2.31 | I 1.43 | C 2.61 | R 2.3 | Y 2.29 | V 2.14 | E 3.3 | Q 2.24 | M 2.06 | P 2.18 | N 2.11 | L 2.11 | F 1.66 | T 2.57 | A 2.37 | D 3.07 | S 2.69
V12: R 2.6 | K 3.33 | N 2.98 | M 2.86 | P 2.69 | Q 2.58 | W 2.07 | E 3.35 | F 2.11 | Y 2.52 | I 2.52 | T 2.85 | L 2.76 | D 3.19 | H 2.71 | A 3.03 | S 2.78 | C 2.48 | G 3.13
V5: M 2.18 | H 2.19 | K 1.99 | W 2.46 | P 2.95 | C 2 | N 2.27 | F 2.24 | T 2.69 | I 2.17 | L 2.84 | G 2.31 | Q 2.55 | S 1.82 | D 3.34 | Y 1.82 | R 1.76 | A 2.67 | E 3.29
A16: N 2.6 | L 2.33 | R 2.6 | F 2.32 | V 2.2 | H 3.05 | E 3.31 | S 2.45 | W 1.84 | G 2.13 | M 2.34 | P 3.02 | I 2.2 | Q 3.01 | K 2.71 | Y 1.87 | C 2.44 | T 2.82 | D 2.54
E9: Q 2.52 | V 2.42 | F 1.76 | P 2.51 | H 1.97 | M 2.32 | W 1.61 | L 2.12 | Y 1.97 | T 1.91 | S 2.04 | C 1.63
